From US10906989 (dated 2021)
Read-outs that look alike come from different tables or passages of the source.

T1: BODIPY-labeled staphylocoagulase SC (S7C)(1-325) (Staphylococcus aureus, UniProt P17855 27-351)
T1 sequence: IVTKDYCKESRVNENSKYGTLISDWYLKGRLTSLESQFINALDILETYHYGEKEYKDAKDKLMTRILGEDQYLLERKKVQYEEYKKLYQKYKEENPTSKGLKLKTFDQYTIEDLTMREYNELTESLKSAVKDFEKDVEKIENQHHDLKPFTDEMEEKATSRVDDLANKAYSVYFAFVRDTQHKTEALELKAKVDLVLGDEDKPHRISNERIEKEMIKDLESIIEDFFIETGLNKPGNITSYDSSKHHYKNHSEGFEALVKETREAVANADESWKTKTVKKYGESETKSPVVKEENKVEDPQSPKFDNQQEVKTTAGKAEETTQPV

T2: staphylocoagulase SC(1-246), unlabeled (Staphylococcus aureus, UniProt P17855 27-272)
T2 sequence: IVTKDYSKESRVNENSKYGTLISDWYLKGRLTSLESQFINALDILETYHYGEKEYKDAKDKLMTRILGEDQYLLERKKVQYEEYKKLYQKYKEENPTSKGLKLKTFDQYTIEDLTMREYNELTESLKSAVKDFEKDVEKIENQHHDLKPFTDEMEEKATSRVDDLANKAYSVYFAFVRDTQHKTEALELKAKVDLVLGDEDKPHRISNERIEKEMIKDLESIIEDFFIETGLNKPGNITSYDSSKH

B1: GMA-2105 murine monoclonal antibody (antibody, V domains shown)
VH: EVKLEESGGGLVQPGGSMKLSCAASGFTFSDAWMDWVRQSPEKGLEWVAEIRTKANNHATYYAESVKGRFTISRDDSKSSVYLQMNSLRAEDTGIYYCTNVYYGNNDVKDYWGQGTSVTVSP
VL: DIVMTQSQKFMSTSVGDRVSVTCKASQNVDIYVAWYQQKPGQSPKALIYSASYRFSGVPDRFTGSGSGTDFTLSISNVQSEDLAEYFCQQYNNYPYTFGGGTKLEIKR
notes: also called anti-SC(1-10) mAb; clone 2A1.5H4.B7
B2: Chimeric GMA-2105 (antibody, V domains shown)
VH: B1 VH
VL: B1 VL

Legend:
[1] = target: T1, BODIPY-labeled staphylocoagulase SC …; assay: BODIPY fluorescence increase on titration, quadratic binding equation
[2] = target: Mutated Peptide Ala 8 (Staphylococcus aureus); assay: solid phase competitive inhibition ELISA; peptide in solution against coated …
[3] = target: Mutated Peptide Ala 9 (Staphylococcus aureus); assay: as above
[4] = target: Mutated Peptide Ala 8 & 9 (Staphylococcus aureus); assay: as above
[5] = target: T1, BODIPY-labeled staphylocoagulase SC …
[6] = target: T2, staphylocoagulase SC(1-246), unlabeled

Binder	Kd [1] [nM]	stoichiometry (n) [1]	binding result [2]	binding result [3]	binding result [4]	Kd [5] [nM]	stoichiometry [5]	Kd [6] [nM]
B1	2	1.6 mol BODIPY-SC/mol GMA-2105	binds	binds	binds	0.99	2 mol staphylocoagulase/mol GMA-2105	4
B2						0.79	2 mol staphylocoagulase/mol chimeric antibody	
